Measured values reported in article PMC6156153.

Biological target: recombinant staphylococcal protein A (SpA) (Staphylococcus aureus) (UniProt P02976)
Chain of UniProt P02976 (P02976 37-485): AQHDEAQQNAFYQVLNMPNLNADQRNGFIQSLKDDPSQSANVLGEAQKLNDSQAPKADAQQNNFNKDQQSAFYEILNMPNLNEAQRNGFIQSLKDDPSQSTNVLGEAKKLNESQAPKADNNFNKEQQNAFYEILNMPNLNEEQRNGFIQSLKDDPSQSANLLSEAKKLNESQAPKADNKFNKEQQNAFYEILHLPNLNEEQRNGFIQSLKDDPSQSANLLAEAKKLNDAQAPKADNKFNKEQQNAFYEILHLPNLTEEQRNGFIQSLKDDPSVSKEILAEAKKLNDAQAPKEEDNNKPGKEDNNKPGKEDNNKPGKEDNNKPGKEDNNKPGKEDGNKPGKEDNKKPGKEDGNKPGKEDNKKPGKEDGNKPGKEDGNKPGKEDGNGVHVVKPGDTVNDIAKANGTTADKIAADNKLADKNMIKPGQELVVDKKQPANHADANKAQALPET

recombinant murine VHI isotype control IgG3 (antibody genes of the anti-hen egg lysozyme D1.3 mAb)
in vivo depletion of adoptively transferred VHIII (T15i) B cells at 72 h after SpA challenge in muMT mice pretreated with 1 mg of the IgG (told of the IgG3 mAbs together): 60 % depletion

recombinant murine VHIII IgG3 (variable regions of the anti-PC TEPC15 clone) (antibody)
in vivo depletion of adoptively transferred VHIII (T15i) B cells at 72 h after SpA challenge in muMT mice pretreated with 1 mg of the IgG (told of the IgG3 mAbs together): 60 % depletion
